B1: glmS ribozyme (parent)
chain: AUAAAAGCGCCAGAACUACAGAAAUGUAGUUGACGAGGAGGAGGUUUAUCGAAUUUUCGGCGGAUGCCUCCAAA

± gives the standard error. For part of these data: This sample holds only a part of the variants without activity.

Common to all, as to settings: with glucosamine-6-phosphate
Data set [1] covers variants of B1. The data set can be described thus: kcat; higher = faster cleavage; RNA array. In short, it runs like this:
(§1)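 Barcoded glmS ribozyme variants on sequenced MiSeq chips were transcribed in situ by E. coli RNA polymerase and tracked through a hybridised Cy3 probe at 37 °C. Glucosamine-6-phosphate (40 μM to 10 mM) in HEPES/KCl/Mg(OAc)2 buffer was flowed in, and tiles were imaged over ~14 h. Signals were normalised to baseline and to non-cleaving reference variants; per-tile medians were fit to one- or two-exponential decays to give kobs. kcat and KM came from weighted Michaelis–Menten fits across concentrations.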

The variants in data set [2] derive from B1. Nature of the data set: KM; higher = weaker cofactor use; RNA array. In short, it runs like this:
as §1

The variants in data set [3] derive from B1. The data set can be described thus: self-cleavage kobs at 40 uM GlcN6P; higher = faster cleavage; RNA array. In short, it runs like this:
as §1

The variants in data set [4] derive from B1. Nature of the data set: self-cleavage kobs at 160 uM GlcN6P; higher = faster cleavage; RNA array. The gist of the method: as §1
In data set [5] the parent is B1. The data set can be described thus: self-cleavage kobs at 640 uM GlcN6P; higher = faster cleavage; RNA array. The gist of the method: as §1
The variants in data set [6] derive from B1. Nature of the data set: self-cleavage kobs at 2500 uM GlcN6P; higher = faster cleavage; RNA array. In short, it runs like this:
as §1

Variants of B1 are the subject of data set [7]. The data set can be described thus: self-cleavage kobs at 10000 uM GlcN6P; higher = faster cleavage; RNA array. The gist of the method: as §1

The results in this text go back to the supplement of paper PMC7125110.

By kcat is commonly meant the number of substrate molecules converted per active site and unit of time at saturation. The KM is the concentration of substrate that gives half-maximal velocity. Take AUAAAAGCGCCAGAACUACAGAAAUGUAGUUGACGAGGAGGAGGUUCAUCGAAUGUUCGGCGGAUGCCUCCAAA [U47C U55G]: the kcat with glucosamine-6-phosphate [1] was found to be 0.0038 ± 0.00044 s⁻¹. Further, the KM with glucosamine-6-phosphate [2] stood at 1640 ± 260 µM. Moreover, in the data set with glucosamine-6-phosphate [3], the “self-cleavage kobs at 40 uM GlcN6P” value is 9.2e-05 ± 7.2e-06 s⁻¹. In addition, the “self-cleavage kobs at 160 uM GlcN6P” value in the data set with glucosamine-6-phosphate [4] is 0.000341 ± 4.2e-05 s⁻¹. Also, the “self-cleavage kobs at 640 uM GlcN6P” value with glucosamine-6-phosphate [5] worked out at 0.0011 ± 0.00014 s⁻¹. In addition, the “self-cleavage kobs at 2500 uM GlcN6P” value with glucosamine-6-phosphate [6] amounted to 0.00161 ± 0.00035 s⁻¹. Moreover, the “self-cleavage kobs at 10000 uM GlcN6P” value in the data set with glucosamine-6-phosphate [7] amounted to 0.00347 ± 0.00028 s⁻¹.
Consider AUAAAAGCGCCAGACCUACAGAAAUGUAGUUGACGAGGAGGAGGUUUAUCGAAUUUUAGGCGGAUGCCUCCAAA [A15C C58A], for which the kcat with glucosamine-6-phosphate [1] was determined as 0.000185 ± 2.6e-05 s⁻¹. Moreover, the Michaelis constant (KM) with glucosamine-6-phosphate [2] stood at 2130 ± 720 µM. In addition, in the data set with glucosamine-6-phosphate [5], the “self-cleavage kobs at 640 uM GlcN6P” value stood at 5.17e-05 ± 1.2e-05 s⁻¹. Further, the “self-cleavage kobs at 2500 uM GlcN6P” value in the data set with glucosamine-6-phosphate [6] was 8.54e-05 ± 1.6e-05 s⁻¹. Also, the “self-cleavage kobs at 10000 uM GlcN6P” value in the data set with glucosamine-6-phosphate [7] is 0.00016 ± 2.1e-05 s⁻¹.
With AUAAAAGCGCCAGAACUACAGAAAUGUAGUUGACGAGGUGGAGGUUCAUCGAAUUUUCGGCGGAUGCCUCCAAA [A39U U47C], the kcat with glucosamine-6-phosphate [1] came to 0.00869 ± 0.002 s⁻¹. Also, the KM in the data set with glucosamine-6-phosphate [2] turned out to be 1870 ± 580 µM. Besides, in the data set with glucosamine-6-phosphate [3], the “self-cleavage kobs at 40 uM GlcN6P” value turned out to be 0.000213 ± 4.3e-05 s⁻¹. In addition, the “self-cleavage kobs at 160 uM GlcN6P” value with glucosamine-6-phosphate [4] worked out at 0.000748 ± 0.0002 s⁻¹. Further, the “self-cleavage kobs at 640 uM GlcN6P” value in the data set with glucosamine-6-phosphate [5] stood at 0.00198 ± 0.00032 s⁻¹. The “self-cleavage kobs at 2500 uM GlcN6P” value with glucosamine-6-phosphate [6] amounted to 0.00471 ± 0.00098 s⁻¹. Further, the “self-cleavage kobs at 10000 uM GlcN6P” value with glucosamine-6-phosphate [7] was 0.00934 ± 0.0026 s⁻¹.
AUAAAAGCGCCAGAACUACAGAAAUGUAGUUGACGAGGAGGAGGUUUAUCGAAUUUUCGGCGGUUGACUCCAAA [A64U C67A]: the kcat with glucosamine-6-phosphate [1] was 2.58e-05 ± 3.2e-06 s⁻¹. Besides, the “self-cleavage kobs at 10000 uM GlcN6P” value with glucosamine-6-phosphate [7] was determined as 2.41e-05 ± 6.5e-06 s⁻¹.
Regarding AUAAAAGCGCCAGAACUACAGAAAUGUAGUUGACGAGGCGGAGGUUUAUCGAAUUUUCGGCGGAUGCCUUCAAA [A39C C70U], the kcat with glucosamine-6-phosphate [1] is 0.000652 ± 0.00018 s⁻¹. Further, in the data set with glucosamine-6-phosphate [2], the KM worked out at 1210 ± 530 µM. Moreover, the “self-cleavage kobs at 40 uM GlcN6P” value with glucosamine-6-phosphate [3] came to 4.36e-05 ± 6.9e-06 s⁻¹. For the same variant, the “self-cleavage kobs at 160 uM GlcN6P” value with glucosamine-6-phosphate [4] was 7.31e-05 ± 9.7e-06 s⁻¹. Further, the “self-cleavage kobs at 640 uM GlcN6P” value in the data set with glucosamine-6-phosphate [5] is 0.00019 ± 2.5e-05 s⁻¹. Further, in the data set with glucosamine-6-phosphate [6], the “self-cleavage kobs at 2500 uM GlcN6P” value stood at 0.000461 ± 8.2e-05 s⁻¹. In the data set with glucosamine-6-phosphate [7], the “self-cleavage kobs at 10000 uM GlcN6P” value is 0.000616 ± 7.3e-05 s⁻¹.
With AUAAAAGCGCCAGAUCUACAGAAAUGUAGCUGACGAGGAGGAGGUUUAUCGAAUUUUCGGCGGAUGCCUCCAAA [A15U U30C], in the data set with glucosamine-6-phosphate [1], the kcat was 0.000145 ± 1.2e-05 s⁻¹. For the same variant, in the data set with glucosamine-6-phosphate [2], the KM stood at 2410 ± 450 µM. Also, in the data set with glucosamine-6-phosphate [5], the “self-cleavage kobs at 640 uM GlcN6P” value was found to be 3.48e-05 ± 6.3e-06 s⁻¹. Besides, the “self-cleavage kobs at 2500 uM GlcN6P” value with glucosamine-6-phosphate [6] turned out to be 6.99e-05 ± 6.6e-06 s⁻¹. Moreover, the “self-cleavage kobs at 10000 uM GlcN6P” value in the data set with glucosamine-6-phosphate [7] came out at 0.00012 ± 1.1e-05 s⁻¹.
In the case of AUAAAAGCGCCAGAACUACAGAAAUGUAGUUGACGAGGAGGAGGUUUAUCGAAUCUUAGGCGGAUGCCUCCAAA [U55C C58A], the kcat with glucosamine-6-phosphate [1] amounted to 0.000437 ± 0.00015 s⁻¹. The “self-cleavage kobs at 160 uM GlcN6P” value in the data set with glucosamine-6-phosphate [4] came to 4.03e-05 ± 1.3e-05 s⁻¹. In the data set with glucosamine-6-phosphate [5], the “self-cleavage kobs at 640 uM GlcN6P” value turned out to be 9.55e-05 ± 1.2e-05 s⁻¹. In addition, the “self-cleavage kobs at 2500 uM GlcN6P” value in the data set with glucosamine-6-phosphate [6] was 0.000175 ± 2.3e-05 s⁻¹. Further, the “self-cleavage kobs at 10000 uM GlcN6P” value with glucosamine-6-phosphate [7] turned out to be 0.000455 ± 6.7e-05 s⁻¹.
As for AUAAAAGCGCCAGAACUACAGAAAUGUAGUUGACGACGAGGAGGUUUAUCGAAUUUUCGGCGGAUGCCACCAAA [G37C U69A], the kcat with glucosamine-6-phosphate [1] was 1.84e-05 ± 4.8e-06 s⁻¹.
